Measurements reported in paper PMC4130638, “Structure of a Stapled Peptide Antagonist Bound to Nutlin-Resistant Mdm2” (PLoS ONE, 2014).
Positions of bridges follow the written chain, without caps; N, C: chain ends. Non-standard residues stand in square brackets, D forms with d. S8 = C=CCCCCCC[C@](C)(N)C(=O)O; S5 = C=CCCC[C@](C)(N)C(=O)O; FAM = carboxyfluorescein

B1: M06 stapled peptide (peptide)
chain: Ac-TSF[S5]EYWYLL[S8]-NH2
modifications: staple 4-11
SMILES: CC(=O)N[C@H](C(=O)N[C@@H](CO)C(=O)N[C@@H](Cc1ccccc1)C(=O)N[C@@]1(C)CCCC=CCCCCCC[C@@](C)(C(N)=O)NC(=O)[C@H](CC(C)C)NC(=O)[C@H](CC(C)C)NC(=O)[C@H](Cc2ccc(O)cc2)NC(=O)[C@H](Cc2c[nH]c3ccccc23)NC(=O)[C@H](Cc2ccc(O)cc2)NC(=O)[C@H](CCC(=O)O)NC1=O)[C@@H](C)O
B2: carboxyfluorescein (FAM) labelled 12-1 peptide (peptide)
peptide: {FAM}-RFMDYWEGL-NH2
notes: 12-1 peptide, tracer of the fluorescence anisotropy assay

Experiments:
[1] = molecular target: T1, Mdm2-M62A (amino acids 6-125) (UniProt Q00987 6-125, M62A); test: fluorescence polarisation; competitive fluorescence anisotropy: M06 titrated against a constant 150 nM Mdm2 (6-125) wild type or M62A and 50 nM FAM-12-1 peptide; PBS pH 7.4, 3% DMSO, 0.1% Tween-20; apparent Kd; 3-5 titrations; conditions: both partners purified
T1 construct: Made from the wild-type pGEX-6P-1 construct by QuickChange mutagenesis; also called Nutlin-resistant Mdm2; mutant Mdm2 (6-125); source: E. coli BL21(DE3) pLysS, purified (GSTrap, on-column PreScission cleavage, Resource S cation exchange)

[2] = molecular target: T2, Mdm2 (amino acids 6-125), wild type (UniProt Q00987 6-125); test: as above; conditions: both partners purified
T2 construct: Cloned in pGEX-6P-1; also called Mdm2 (6-125); wild-type Mdm2; source: E. coli BL21(DE3) pLysS, purified (GSTrap, on-column PreScission cleavage, Resource S cation exchange)

[3] = molecular target: T2, Mdm2 (amino acids 6-125), wild type; test: not stated; Kds told in the discussion of the structures without method, construct or citation

Row | Kd [1] [nM] | Kd [2] [nM] | Kd [3] [nM] | binding result [1] | binding result [2] | Binder
1 | 63.1 ± 17.8 | 107 ± 47.9 | 128 |  |  | B1
2 |  |  |  | binds | binds | B2
